The values below come from article doi:10.1101/2023.08.24.554544.

The target in this assay is GST-tagged A. thaliana Rpn10 (AtRpn10) vWA domain (Arabidopsis thaliana) (UniProt P55034). Briefly: SPR.
Chain of GST-tagged A. thaliana Rpn10 (AtRpn10) vWA domain (Arabidopsis thaliana) (P55034 2-193): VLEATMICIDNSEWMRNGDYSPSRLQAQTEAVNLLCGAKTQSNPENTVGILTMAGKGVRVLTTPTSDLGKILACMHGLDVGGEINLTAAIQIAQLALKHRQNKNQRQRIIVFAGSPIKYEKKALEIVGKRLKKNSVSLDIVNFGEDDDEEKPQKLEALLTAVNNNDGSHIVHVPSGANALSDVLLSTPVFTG

The substance “V-shape-GSGS-C-ter peptide (fused V-shape and C-ter peptide of SAP05, linked by the GSGS linker)” had a Kd of 34.3 µM.

As usually defined, the Kd is the constant that tells how readily two partners part at equilibrium.
